Experimental data: patent CN113117073A

Columns and labels:
[1] = biological target: PD-L1 (antigen of the indirect ELISA for titre; not specified); assay: indirect ELISA, ascites antibody
人PD-L1-His (human) = 人PD-L1-His (human) (UniProt Q9NZQ7); assay: SPR; PD-L1-His captured by anti-His antibody on a CM5 chip, antibody as analyte 0-1000 nmol/L, 1:1 binding fit

Sequence of PD-L1 (antigen of the indirect ELISA for titre; not specified) (Q9NZQ7 whole entry): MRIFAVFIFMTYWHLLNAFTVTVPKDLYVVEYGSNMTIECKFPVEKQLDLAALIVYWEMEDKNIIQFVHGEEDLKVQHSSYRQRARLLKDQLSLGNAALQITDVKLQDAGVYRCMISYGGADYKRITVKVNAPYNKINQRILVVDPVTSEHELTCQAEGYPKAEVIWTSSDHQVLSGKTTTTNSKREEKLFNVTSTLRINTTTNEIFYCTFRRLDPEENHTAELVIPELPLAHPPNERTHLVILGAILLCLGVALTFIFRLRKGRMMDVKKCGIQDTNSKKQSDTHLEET

- 腹水效价 (ascites titre) (titre (1:x dilution)) [1]: 2.56e+06
- Kd (人PD-L1-His (human)): 4.19 nM
B1: PD-L1单克隆抗体 1A7 (antibody, part only; not given: light chain variable domain, V domains shown, part only)
VH: EVKLVESGGGLVKPGGSLKLSCAASGFTFSQTTMAWVRQIPEKRLEWVASIEEGGSCCFPDSALSRFTISRDNARNICYLQMNSLRSDDTAMYYCARAREACAGYFARWGQGTTLTVSS
